Consider 2 molecules from publication PMC4178060, “Recombinant p35 from Bacteria Can Form Interleukin (IL-)12, but Not IL-35” (PLoS ONE, 2014).

Substitutions are numbered along the chain they refer to.

For data set [1], the target named is T1, p40_(C197A) (murine p40, flag-tagged) (mouse) (UniProt P43432).
T1 sequence: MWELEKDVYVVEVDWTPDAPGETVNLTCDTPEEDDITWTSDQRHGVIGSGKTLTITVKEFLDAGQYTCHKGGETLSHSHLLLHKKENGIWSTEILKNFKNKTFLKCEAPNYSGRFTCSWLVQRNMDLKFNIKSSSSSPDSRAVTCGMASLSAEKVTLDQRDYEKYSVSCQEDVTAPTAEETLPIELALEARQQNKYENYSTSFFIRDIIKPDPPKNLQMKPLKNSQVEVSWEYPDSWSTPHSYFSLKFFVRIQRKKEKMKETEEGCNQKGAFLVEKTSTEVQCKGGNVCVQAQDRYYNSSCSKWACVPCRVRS

Data set [2] deals with the molecule itself. The experiment in a line: non-reducing SDS-PAGE with Western blot; 20 µl conditioned supernatant of transiently transfected HEK293 cells separated by SDS-PAGE under non-reducing conditions; flag-specific antibody; disulfide-linked dimer. (A western blot detects proteins with antibodies after separation by electrophoresis.)

B1: recombinant murine p35 from bacteria (p35bac) (natural protein)
chain: RVIPVSGPARCLSQSRNLLKTTDDMVKTAREKLKHYSCTAEDIDHEDITRDQTSTLKTCLPLELHKNESCLATRETSSTTRGSCLPPQKTSLMMTLCLGSIYEDLKMYQTEFQAINAALQNHNHQQIILDKGMLVAIDELMQSLNHNGETLRQKPPVGEADPYRVKMKLCILLHAFSTRVVTINRVMGYLSSA
As to B1, the biological activity of IL-12 reconstituted with bacterially expressed p35, compared to IL-12 (Ba/F3-gp130-IL-12Rβ1-IL-12Rβ2 cells) (fold less active) in data set [1] was over 100.

B2: p40 wildtype (murine p40, flag-tagged) (natural protein, mouse, UniProt P43432 23-335, looked up)
chain: T1 sequence with A175C
notes: murine p40 (IL-12 subunit beta); The supernatant holds monomer and disulfide-linked dimer; also called mp40; IL-12p40; source: HEK293, transiently transfected, conditioned supernatant
Usually stoichiometry N stands for the number of molecules, sites or subunits per partner or assembly. For the molecule B2, in data set [2], the “stoichiometry N” value stood at 2.
